Measurements taken from paper PMC6215714 (Nature chemical biology, 2015).

Biological target: Growth arrest specific 6 (Gas6), soluble, His-tagged (Homo sapiens, UniProt Q14393)
Experiment: flow cytometry on cells

Chain of Growth arrest specific 6 (Gas6), soluble, His-tagged (Q14393 31-678): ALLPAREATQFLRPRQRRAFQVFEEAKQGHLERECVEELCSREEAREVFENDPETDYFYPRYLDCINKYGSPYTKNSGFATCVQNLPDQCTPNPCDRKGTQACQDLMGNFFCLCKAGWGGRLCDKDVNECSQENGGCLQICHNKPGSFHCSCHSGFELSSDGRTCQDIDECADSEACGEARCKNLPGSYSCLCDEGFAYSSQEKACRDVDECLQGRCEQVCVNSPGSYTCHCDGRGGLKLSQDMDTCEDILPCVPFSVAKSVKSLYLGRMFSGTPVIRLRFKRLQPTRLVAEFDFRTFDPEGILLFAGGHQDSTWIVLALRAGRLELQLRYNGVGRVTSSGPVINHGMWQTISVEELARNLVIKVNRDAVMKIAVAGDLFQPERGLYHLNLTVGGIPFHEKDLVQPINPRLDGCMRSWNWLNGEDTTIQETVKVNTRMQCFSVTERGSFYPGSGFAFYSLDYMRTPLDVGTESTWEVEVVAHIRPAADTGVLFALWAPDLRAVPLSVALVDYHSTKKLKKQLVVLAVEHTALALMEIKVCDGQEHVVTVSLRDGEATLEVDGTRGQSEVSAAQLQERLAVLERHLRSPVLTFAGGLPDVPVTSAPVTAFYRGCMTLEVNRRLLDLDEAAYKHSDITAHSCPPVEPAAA

B1: anti-Gas6 scFv identified by μSCALE from a naïve yeast-displayed scFv library (scFv, V domains shown)
VH: EVQLVESGGGLVQPGGSLRLSCAASGFNISYGGSYIHWVRQAPGKGLEWVASIYPGGGYTYYADSVKGRFTISADTSKNTAYLQMNSLRAEDTAVYYCARTVRGSKKPYFSGWAMDYWGQGTLVTVSS
VL: DIQMTQSPSSLSASVGDRVTITCRASQYGGYGGVAWYQQKPGKAPKLLIYYASSLYSGVPSRFSGSRSGTDFTLTISSLQPEDFATYYCQQWWGYPITFGQGTKVEIK
  Kd: 130 nM
